Here are results for 16 molecules from patent publication US20220040297A1 (Chugai, published 2022).

B1: GLS3000 R54A (antibody, name in Kabat numbering, V domains shown)
VH: QVQLVESGGGVVQPGRSLRLSCAASGFTFSNAWMHWVRQAPGKGLEWVAQIKAKSNNYATYYAESVKGRFTISRDDSKNSLYLQMNSLKTEDTAVYYCRYVHYGAYYGVDAWGQGTTVTVSS
VL: DIVMTQSPLSLPVTPGEPASISCRSSQSLVHSNRNTYLHWYQQKPGQAPRLLIYKVSNAFSGVPDRFSGSGSGTDFTLKISRVEAEDVGVYYCGQGTQVPYTFGQGTKLEIK
notes: one-arm format as m2
B2: GLS3000 R54W (antibody, name in Kabat numbering, V domains shown)
VH: B1 VH
VL: B1 VL with A59W
notes: one-arm format as m2
B3: GLS3000 S25A (antibody, name in Kabat numbering, V domains shown)
VH: B1 VH
VL: B1 VL with S25A, A59R
notes: one-arm format as m2
B4: GLS3000 R77S (antibody, name in Kabat numbering, V domains shown)
VH: B1 VH
VL: B1 VL with A59R, R82S
notes: one-arm format as m2
B5: GLS3000 S25L (antibody, name in Kabat numbering, V domains shown)
VH: B1 VH
VL: B1 VL with S25L, A59R
notes: one-arm format as m2
B6: GLS3000 S25D (antibody, name in Kabat numbering, V domains shown)
VH: B1 VH
VL: B1 VL with S25D, A59R
notes: one-arm format as m2
B7: GLS3000 R54G (antibody, name in Kabat numbering, V domains shown)
VH: B1 VH
VL: B1 VL with A59G
notes: one-arm format as m2
B8: GLS3000 S25M (antibody, name in Kabat numbering, V domains shown)
VH: B1 VH
VL: B1 VL with S25M, A59R
notes: one-arm format as m2
B9: GLS3000 R54S (antibody, name in Kabat numbering, V domains shown)
VH: B1 VH
VL: B1 VL with A59S
notes: one-arm format as m2
B10: GLS3000 S25E (antibody, name in Kabat numbering, V domains shown)
VH: B1 VH
VL: B1 VL with S25E, A59R
notes: one-arm format as m2
B11: GLS3000 S25I (antibody, name in Kabat numbering, V domains shown)
VH: B1 VH
VL: B1 VL with S25I, A59R
notes: one-arm format as m2
B12: GLS3000 R54E (antibody, name in Kabat numbering, V domains shown)
VH: B1 VH
VL: B1 VL with A59E
notes: one-arm format as m2
B13: GLS3000 R54T (antibody, name in Kabat numbering, V domains shown)
VH: B1 VH
VL: B1 VL with A59T
notes: one-arm format as m2
B14: GLS3000 R54Q (antibody, name in Kabat numbering, V domains shown)
VH: B1 VH
VL: B1 VL with A59Q
notes: one-arm format as m2
B15: GLS3000 R54D (antibody, name in Kabat numbering, V domains shown)
VH: B1 VH
VL: B1 VL with A59D
notes: one-arm format as m2
B16: GLS3000 R54P (antibody, name in Kabat numbering, V domains shown)
VH: B1 VH
VL: B1 VL with A59P
notes: one-arm format as m2

Changes are numbered by the printed parent chain.

CD3ε homodimer protein, sequence (P07766 23-126 limits assumed): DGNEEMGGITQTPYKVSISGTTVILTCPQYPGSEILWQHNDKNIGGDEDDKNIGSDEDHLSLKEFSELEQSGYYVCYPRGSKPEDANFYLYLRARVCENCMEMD

This test concerns the target CD3ε homodimer protein (human, UniProt P07766 23-126, limits assumed). Kind of test: SPR, immobilized CD3ε homodimer.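 Note: biacore T200 surface plasmon resonance at 25 °C, antibody variants flowed as analytes over amine-coupled CD3ε homodimer on a CM4 chip, variant binding amount divided by that of GLS3000 antibody.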
As to B1, the “ratio of amounts bound (vs GLS3000)” value worked out at 0.69. To B2 belongs 0.78; to B3, 0.92; to B4, 0.92. On to B5, for which the “ratio of amounts bound (vs GLS3000)” value stood at 0.24.

As for B6, the “ratio of amounts bound (vs GLS3000)” value turned out to be 0.48. To B7 belongs 0.67; to B8, 0.31.

As for B9, the “ratio of amounts bound (vs GLS3000)” value was determined as 0.79. To B10 belongs 0.21; to B11, 0.53; to B12, 0.58.

On to B13, for which the “ratio of amounts bound (vs GLS3000)” value amounted to 0.65.

B14: the “ratio of amounts bound (vs GLS3000)” value came to 0.68. To B15 belongs 0.36; to B16, 0.84.
